{"source": "patent US9623039B2", "about": "“Treatment and prevention of pathological conditions using iduna related techniques and compositions” (VALTED, LLC, priority 2010, dated 2017)", "molecules": {"B1": {"name": "Iduna: novel NMDA-induced cell survival protein, PAR-dependent E3 ligase; 359 amino acids (protein)", "chain": "MEMAGCGEIDHSINMLPTNKKANESCSNTAPSLTVPECAICLQTCVHPVSLPCKHVFCYLCVKGASWLGKRCALCRQEIPEDFLDKPTLLSPEELKAASRGNGEYAWYYEGRNGWWQYDERTSRELEDAFSKGKKNTEMLIAGFLYVADLENMVQYRRNEHGRRRKIKRDIIDIPKKGVAGLRLDCDTNTVNLARESSADGADSGSAQTGASVQLAVPSSTRPLTSVDGQLTSPVTPSPDAGISLEDSFAHLQLSGDSIAERSHRGEGEEDHESPSSGRVPDTSVEETESDASSDSEDAPVVVAQHSLTQQRPLVPNGNQTVADQSDRSGTDRSVAGGGTMSVNVRSRRPDGQCTVIEV"}}, "key": {"AIF": {"test_system": "AIF", "assay": "NMDA-induced AIF translocation in cortical neurons", "format": "cell-based, mouse", "conditions": "excitotoxic NMDA", "source_text": "Parthanatos involves the translocation of apoptosis inducing factor (AIF) from the mitochondria to the nucleus following NMDA excitotoxicity. AIF translocation following excitotoxic NMDA treatment was monitored by immunohistochemistry and confocal microscopy (FIG. 50) and by immunoblot analysis of nuclear and mitochondrial subcellular fractions (FIG. 51)."}, "MCF7 cells [1]": {"test_system": "MCF7 cells", "assay": "MNNG cell death assay in stable MCF7 cell lines", "format": "cell-based, human", "conditions": "MNNG 500 μM 15 min, 24 hr", "experimental": "Cell death assay. GFP, GFP-Iduna, GFP-Iduna C60A, GFP-Iduna YRAA, shRNA-Iduna and shRNA-Iduna/GFP-Iduna stably transfected cells were treated with 500 μM MNNG for 15 min, and replaced with fresh growth media. After 24 h, the cells were stained with […] Hoechst 33342 (Invitrogen) and […] propidium iodide (PI) (Invitrogen) and counted by automated computer-assisted program (Carl Zeiss). The percentage of cell death was determined as the ratio of live to dead cells compared with the percentage of cell death in control."}, "PARP-1 [2]": {"biological_target": "T1, PARP-1 (Homo sapiens, UniProt P09874)", "T1 construct": "purchased Trevigen", "T1 sequence (P09874 whole entry)": "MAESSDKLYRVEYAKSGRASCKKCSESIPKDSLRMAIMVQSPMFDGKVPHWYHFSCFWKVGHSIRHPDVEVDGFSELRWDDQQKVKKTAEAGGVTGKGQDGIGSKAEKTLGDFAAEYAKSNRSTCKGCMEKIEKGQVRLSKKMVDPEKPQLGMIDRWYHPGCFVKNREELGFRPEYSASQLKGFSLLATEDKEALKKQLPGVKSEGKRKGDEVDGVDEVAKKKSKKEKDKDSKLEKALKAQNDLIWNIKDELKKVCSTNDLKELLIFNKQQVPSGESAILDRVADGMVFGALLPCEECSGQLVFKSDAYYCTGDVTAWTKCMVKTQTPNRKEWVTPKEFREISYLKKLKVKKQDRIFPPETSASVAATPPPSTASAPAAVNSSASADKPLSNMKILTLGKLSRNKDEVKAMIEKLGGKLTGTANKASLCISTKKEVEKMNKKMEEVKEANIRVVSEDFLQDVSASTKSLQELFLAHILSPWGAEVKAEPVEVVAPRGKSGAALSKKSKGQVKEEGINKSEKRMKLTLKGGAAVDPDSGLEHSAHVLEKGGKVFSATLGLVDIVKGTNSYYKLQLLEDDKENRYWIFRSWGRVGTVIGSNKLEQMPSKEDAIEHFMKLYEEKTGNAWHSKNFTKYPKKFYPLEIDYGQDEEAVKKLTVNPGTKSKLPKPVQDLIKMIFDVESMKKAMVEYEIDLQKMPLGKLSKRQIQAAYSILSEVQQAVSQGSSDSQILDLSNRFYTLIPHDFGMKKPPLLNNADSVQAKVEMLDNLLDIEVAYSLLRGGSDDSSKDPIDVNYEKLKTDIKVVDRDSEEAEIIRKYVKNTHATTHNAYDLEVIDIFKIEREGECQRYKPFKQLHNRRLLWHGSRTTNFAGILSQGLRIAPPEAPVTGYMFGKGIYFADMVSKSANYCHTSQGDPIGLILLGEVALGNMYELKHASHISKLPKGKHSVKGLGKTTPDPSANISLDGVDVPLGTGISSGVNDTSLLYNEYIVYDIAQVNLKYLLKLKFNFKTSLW", "assay": "Chemiluminescent PARP assay (biotinylated PAR onto histone)", "format": "biochemical", "conditions": "incorporation of biotinylated PAR onto histone proteins", "experimental": "(§1) Because PARP-1 activation plays a prominent role in NMDA excitotoxicity we tested whether PARP-1 activity is directly affected by Iduna. PARP-1 activity was assessed by incorporation of biotinylated PAR onto histone proteins.\nChemiluminescent PARP assay for poly(ADP-ribosyl)ation of Histone H1: Activity of PARP-1 was determined by Trevigen Universal chemiluminescent PARP assay kit (Trevigen, Gaithersburg, Md., USA) in the presence of Iduna or the PARP-1 inhibitor 3-aminobenzamide (3-AB). According to manufacturer's instructions, the incorporation of biotinylated NAD+ (Trevigen) into the poly(ADP-ribose) polymer primed at solid phase immobilized histone H1 (Trevigen) was detected by the chemiluminescent assay, either in the presence or absence of recombinant Iduna. Reactions were performed with 34 μM total biotinylated NAD+ for 60 min at 25° C. in triplicates. Chemiluminescence was measured using a fluorescence multi-well plate reader (SOSTmax, Sunnyvale, Calif.) with an excitation at 544 nm excitation/590 nm emission. In the parallel wells, PARP1 activity was measured after the 3-aminobenzamide treatment at the same concentration of biotinylated NAD+ (34 μM)."}, "MCF7 cells [3]": {"test_system": "MCF7 cells", "assay": "Alkaline comet assay after γ-irradiation", "format": "cell-based, human", "conditions": "γ-irradiation 2 Gy, 15 min", "experimental": "Comet assay. Single cell gel electrophoresis assay was performed by following the manufacturer's instructions. Briefly, established stable cell lines were irradiated (2 Gy) with a Gammacell irradiator and then further incubated for 15 min at 37° C. Cells were collected at 500×g at 4° C. and rinsed twice with ice cold PBS (Ca++ and Mg++ free). A total of 5×10^5 cells were counted and resuspended into PBS (Ca++ and Mg++ free) and then combined with LMAgarose (low melting agarose) at a ratio 1:10 (v/v). Each sample was spotted into CometSlide™ and lysed with buffer (supplied with CometAssay Kit, Trevigen) for 1 h at 4° C. After draining the excess lysis buffer, slides were immersed with alkaline unwinding solution (200 mM NaOH, pH>13, 1 mM EDTA) for 1 h at RT. To the single cell electrophoresis, each comet slide was placed in electrophoresis slide tray with 1 L of alkaline unwinding solution and applied to 21 Volts for 30 min for electrophoresis. After draining the excess electrophoresis buffer, slides were rinsed twice with dH2O and then fixed with 70% ethanol for 5 min. To facilitate single cell observation, slides were dried at 40° C. and stained with SYBR Green I (supplied with CometAssay Kit) for 5 min at 4° C. […] Fifty cells per slide were monitored and the DNA damage was calculated using comet tail length and head diameter parameters."}, "PARP-1 [4]": {"test_system": "PARP-1", "assay": "PARP inhibition assay (32P-NAD incorporation into PAR polymer)", "format": "biochemical", "conditions": "32P-NAD incorporation into radiolabeled PAR polymer", "experimental": "as §1\nPARP Inhibition Assay: To evaluate the ability of Iduna to act as a PARP inhibitor, [^32P]-labeled automodified PARP-1 was synthesized in presence of GST, GST-Iduna or PARG, respectively. To purify the [^32P]-labeled automodified PARP-1, the reaction mixture was incubated with anti-PAR antibody for 4 h at 4° C. and then sequentially incubated with protein-G slurry for 1 h at 4° C. Samples were washed two times with PBS and the amount of [^32P]-labeled automodified PARP-1 was measured by LS 6500 Liquid Scintillation Counting System."}, "primary cortical neurons": {"test_system": "primary cortical neurons", "assay": "Mitochondrial membrane potential (TMRM live imaging)", "format": "cell-based, mouse", "conditions": "TMRM fluorescence, NMDA 500 μM", "experimental": "Mitochondrial Membrane Potential (Δψm): TMRM was used to determine Δψm. Mouse neuronal cultures were loaded with TMRM (100 nM) for 20 min. Thereafter, live-cell imaging was captured using LSM 510 Live Confocal microscope (Carl Zeiss, Germany) for 20 minutes and fluorescence values for TMRM were calculated using LSM 510 confocal software (Carl Zeiss). Following 50-100 seconds base-line stabilization, NMDA (500 μM for 5 min) was directly perfused during image acquisition on the confocal microscopic stage using a peristaltic pump (Gilson). Live images were acquired at an interval of 20 s using a low laser power to avoid excessive bleaching. Due to spectral overlap with GFP, plasma membrane potential could not be determined."}, "MCF7 cells [5]": {"test_system": "MCF7 cells", "assay": "Determination of apurinic/apyrimidinic (AP) sites", "format": "cell-based, human", "conditions": "1 h", "experimental": "Determination of apurinic/apyrimidinic (AP) sites. The amount of AP sites in genomic DNA was monitored by a DNA damage quantification kit (BioVision). Briefly, cells were treated with either DMSO or 500 μM MNNG for 15 min, and then replaced with normal growth media. After 1 h, cells were scraped and harvested at 500×g for 5 min and washed once with PBS. Genomic DNA was isolated using a Biovision Genomic DNA Isolation Kit (BioVision) and then AP sites on the 0.5 μg of genomic DNA was labeled with biotin by the Aldehyde Reactive Probe (ARP) reagent (supplied with the DNA damage quantification kit) for 1 h at 37° C. To precipitate the biotin-tagged DNA, sample was mixed with TE buffer containing 2% glycogen and then sequentially incubated with ice cold 70% ethanol for 30 min at −20° C. […] To determine of the number of AP sites in DNA, samples were dissolved in TE buffer and then transferred into 96 well plate with DNA binding buffer (supplied with the DNA damage quantification kit). After 12 h, samples were washed five times with DNA washing buffer (supplied with the DNA damage quantification kit) and then biotin labeled AP sites were quantified using an avidin-biotin assay. Each sample and standards (supplied with a DNA damage quantification kit) were run in triplicate and the OD was measured at 650 nm using a 96-well plate reader (SpectraMax Plus384 Microplate Reader)."}}}
{"molecule": "B1", "values": [{"measurement": "AIF translocation to the nucleus", "setting": "AIF", "result": "reduces the translocation of AIF"}, {"measurement": "MNNG-induced cell death", "setting": "MCF7 cells [1]", "result": "dramatically rescues MCF7 cells from MNNG-induced cell death"}, {"measurement": "PARP-1 activity", "setting": "PARP-1 [2]", "result": "has no effect"}, {"measurement": "comet head diameter and tail length", "setting": "MCF7 cells [3]", "result": "dramatically prevents the reduction in head diameter and increase in tail length"}, {"measurement": "PARP-1 catalytic activity", "setting": "PARP-1 [4]", "result": "fails to inhibit PARP-1 catalytic activity"}, {"measurement": "NMDA induced loss of Δψm", "setting": "primary cortical neurons", "result": "prevents NMDA induced loss of Δψm"}, {"measurement": "increase in AP sites after MNNG", "setting": "MCF7 cells [5]", "result": "completely prevented"}]}
